Test results: patent US20240067944A1 (published 2024)
No end group written: not given here.

Legend:
Test in all cases: ELISA, biotinylated 12-mer peptide on streptavidin, 2 ug/mL FLAG-tagged VHH, anti-FLAG-HRP
… (human) = target: T1, … (human)
T1 sequence (peptide, C-terminally conjugated to biotin): LLDFNQTQPERG

FDLLDFNQTQPE = target: T2, FDLLDFNQTQPE (human)
T2 peptide: FDLLDFNQTQPE-biotin
Description: (§1) To determine whether the binding epitope of the anti-FX VHH polypeptide designated “cmpd #1” are located inside the activation peptide (AP) of human FX (SEQ ID NO:2), an ELISA assay was setup. 41 unique 12-mer peptide fragments spanning the 52 residues of the activation peptide with one amino acid spacing were immobilized in microtiter plate wells followed by incubation with the VHH polypeptide to be tested, and detection of bound ligand was performed by addition of a secondary HRP-labelled antibody.
(§2) The peptides were C-terminally conjugated to biotin and 50 μL of 1 μg/mL peptide solution was used for immobilization in discrete wells of the microtiter plate which was pre-coated with 1 μg/mL streptavidin. Each well was washed with washing buffer (10 mM Tris, 150 mM NaCl, 2.5 mM CaCl₂), 0.05% Tween 20, pH 8.60) followed by addition of 50 μL of 2 μg/mL FLAG-tagged anti-FX VHH polypeptide or IgG antibody to be tested. After 1 hour non-bound VHH polypeptide was washed off using washing buffer.
(§3) Bound anti-FX activation peptide ligand was detected by first binding a HRP-labelled secondary antibody (for FLAG-tagged VHH polypeptide: Anti-FLAG mAb M2-Peroxidase (HRP) (Sigma Aldrich, US) for 1 hour, and then adding 100 μL TMB-1 ELISA substrate (Kem-En-Tec Diagnostics, Denmark).

QATSSSGEAPDS = target: T3, QATSSSGEAPDS (human)
T3 peptide: QATSSSGEAPDS-biotin
Description: as §1, §2, §3

ITWKPYDAADLD = target: T4, ITWKPYDAADLD (human)
T4 peptide: ITWKPYDAADLD-biotin
Description: as §1, §2, §3

DFNQTQPERGDN = target: T5, DFNQTQPERGDN (human)
T5 peptide: DFNQTQPERGDN-biotin
Description: as §1, §2, §3

PTENPFDLLDFN = target: T6, PTENPFDLLDFN (human)
T6 peptide: PTENPFDLLDFN-biotin
Description: as §1, §2, §3

DLDPTENPFDLL = target: T7, DLDPTENPFDLL (human)
T7 peptide: DLDPTENPFDLL-biotin
Description: as §1, §2, §3

FNQTQPERGDNN = target: T8, FNQTQPERGDNN (human)
T8 peptide: FNQTQPERGDNN-biotin
Description: as §1, §2, §3

VAQATSSSGEAP = target: T9, VAQATSSSGEAP (human)
T9 peptide: VAQATSSSGEAP-biotin
Description: as §1, §2, §3

YDAADLDPTENP = target: T10, YDAADLDPTENP (human)
T10 peptide: YDAADLDPTENP-biotin
Description: as §1, §2, §3

TSSSGEAPDSIT = target: T11, TSSSGEAPDSIT (human)
T11 peptide: TSSSGEAPDSIT-biotin
Description: as §1, §2, §3

SGEAPDSITWKP = target: T12, SGEAPDSITWKP (human)
T12 peptide: SGEAPDSITWKP-biotin
Description: as §1, §2, §3

KPYDAADLDPTE = target: T13, KPYDAADLDPTE (human)
T13 peptide: KPYDAADLDPTE-biotin
Description: as §1, §2, §3

SITWKPYDAADL = target: T14, SITWKPYDAADL (human)
T14 peptide: SITWKPYDAADL-biotin
Description: as §1, §2, §3

QTQPERGDNNLT = target: T15, QTQPERGDNNLT (human)
T15 peptide: QTQPERGDNNLT-biotin
Description: as §1, §2, §3

NQTQPERGDNNL = target: T16, NQTQPERGDNNL (human)
T16 peptide: NQTQPERGDNNL-biotin
Description: as §1, §2, §3

DPTENPFDLLDF = target: T17, DPTENPFDLLDF (human)
T17 peptide: DPTENPFDLLDF-biotin
Description: as §1, §2, §3

LDPTENPFDLLD = target: T18, LDPTENPFDLLD (human)
T18 peptide: LDPTENPFDLLD-biotin
Description: as §1, §2, §3

TENPFDLLDFNQ = target: T19, TENPFDLLDFNQ (human)
T19 peptide: TENPFDLLDFNQ-biotin
Description: as §1, §2, §3

AQATSSSGEAPD = target: T20, AQATSSSGEAPD (human)
T20 peptide: AQATSSSGEAPD-biotin
Description: as §1, §2, §3

DSITWKPYDAAD = target: T21, DSITWKPYDAAD (human)
T21 peptide: DSITWKPYDAAD-biotin
Description: as §1, §2, §3

GEAPDSITWKPY = target: T22, GEAPDSITWKPY (human)
T22 peptide: GEAPDSITWKPY-biotin
Description: as §1, §2, §3

DAADLDPTENPF = target: T23, DAADLDPTENPF (human)
T23 peptide: DAADLDPTENPF-biotin
Description: as §1, §2, §3

- ELISA signal normalized relative to the background signal (relative to background) (… (human)): 1.88
- ELISA signal normalized relative to the background signal (FDLLDFNQTQPE): 4.38 relative to background
- ELISA signal normalized relative to the background signal (QATSSSGEAPDS): 0.96 relative to background
- ELISA signal normalized relative to the background signal (ITWKPYDAADLD): 1.1 relative to background
- ELISA signal normalized relative to the background signal (DFNQTQPERGDN): 0.94 relative to background
- ELISA signal normalized relative to the background signal (PTENPFDLLDFN): 4.58 relative to background
- ELISA signal normalized relative to the background signal (DLDPTENPFDLL): 1 relative to background
- ELISA signal normalized relative to the background signal (FNQTQPERGDNN): 1 relative to background
- ELISA signal normalized relative to the background signal (VAQATSSSGEAP): 1.02 relative to background
- ELISA signal normalized relative to the background signal (YDAADLDPTENP): 0.87 relative to background
- ELISA signal normalized relative to the background signal (TSSSGEAPDSIT): 0.77 relative to background
- ELISA signal normalized relative to the background signal (SGEAPDSITWKP): 0.88 relative to background
- ELISA signal normalized relative to the background signal (KPYDAADLDPTE): 0.8 relative to background
- ELISA signal normalized relative to the background signal (SITWKPYDAADL): 1.08 relative to background
- ELISA signal normalized relative to the background signal (NQTQPERGDNNL): 0.92 relative to background
- ELISA signal normalized relative to the background signal (DPTENPFDLLDF): 4.16 relative to background
- ELISA signal normalized relative to the background signal (LDPTENPFDLLD): 1.11 relative to background
- ELISA signal normalized relative to the background signal (TENPFDLLDFNQ): 4.84 relative to background
- ELISA signal normalized relative to the background signal (AQATSSSGEAPD): 0.97 relative to background
- ELISA signal normalized relative to the background signal (DSITWKPYDAAD): 1.08 relative to background
- ELISA signal normalized relative to the background signal (GEAPDSITWKPY): 0.93 relative to background
- ELISA signal normalized relative to the background signal (DAADLDPTENPF): 0.88 relative to background
B1: Cmpd #1 (monovalent anti-FX VHH polypeptide, VHH-1.1) (VHH)
VHH: EVQLVESGGGLVQPGGSLRLSCAASGSIGAFDAMGWYRQAPGKQRELVAGIMVSRGNTNYTDSVKGRFTISRDNAKNTVYLQMNSLKPEDTAVYYCKAVKRPGPGYLEVWGQGTLVTVSS
notes: No protractor
- ELISA signal normalized relative to the background signal (QTQPERGDNNLT): 0.88 relative to background
